The values below come from doi:10.1101/2020.12.15.422995.

The target of this data set is T1, Fur (PerR homolog), 17.4 kDa (Bacillus subtilis, UniProt P54574 1-149).
T1 sequence: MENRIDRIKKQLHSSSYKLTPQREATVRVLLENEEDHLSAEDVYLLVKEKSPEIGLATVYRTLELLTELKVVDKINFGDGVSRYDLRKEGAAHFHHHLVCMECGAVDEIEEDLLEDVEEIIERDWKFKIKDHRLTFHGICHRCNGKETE
As to the kind of experiment: EMSA.

B1: 54-bp degenerate sloR promoter (Deg_sloR_CC1) (dsDNA)
DNA 1: CCTGATAGGATGATGGATAATTAAGGCTTTTATCCACTTTTTACTGACATTTTG
DNA 2: CAAAATGTCAGTAAAAAGTGGATAAAAGCCTTAATTATCCATCATCCTATCAGG
B1: the binding signal was 63 % band shift at 60 nM Fur (relative to 400 nM).
